Source: PMC3897220, “A comparative study of Whi5 and retinoblastoma proteins: from sequence and structure analysis to intracellular networks” (Frontiers in Physiology, 2013)
One block for each molecule: values may come before it.

Columns and labels:
[1] = target: Whi5 (Whi5Sc) motif 3, 245-267 (UniProt Q12416); assay: SPR, biotinylated motif 3 on streptavidin chip; conditions: reference: unphosphorylated motif 1 peptide; sites T143,S154,S156,S161
[2] = target: T1, Whi5^Sc motif 3 peptide (residues 245-267), biotinylated (S. cerevisiae, UniProt Q12416 245-267, biotin (position not given)); assay: SPR; BIAcore X; biotinylated motif 3 immobilised on streptavidin Sensor Chip SA (~1000 resonance units), reference cell saturated with biotin; analytes motif 1 and phospho-motif 1 at 20 to 340 uM; HBS-EP buffer, flow 5 ul/min; conditions: both partners purified
T1 construct: Whi5 of Saccharomyces cerevisiae, motif 3, residues 245-267 (Whi5^Sc numbering); Held on a streptavidin chip by its biotin; source: synthetic peptide (Primm, Milano, Italy)
T1 peptide (looked up): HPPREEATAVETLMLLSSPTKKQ

binding against the reference [1]: weaker
Molecule: Whi5 (Whi5Sc) motif 1, 136-162 (from UniProt Q12416) phospho-motif 1 peptide (pT143, pS154, pS156, pS161)

binding result [2]: binds
B1: Whi5^Sc motif 1 peptide (residues 136-162) (peptide, UniProt Q12416 136-162, looked up)
peptide: MPLLPPTTPKSRRSEVFLSPSPRLRSP
notes: Whi5 of Saccharomyces cerevisiae, motif 1, residues 136-162 (Whi5^Sc numbering); source: synthetic peptide (Primm, Milano, Italy)
